Measured values reported in article PMC3089514 (The Journal of Biological Chemistry, 2011).
Substitutions are numbered along the chain they refer to. Names and notes keep the numbering of the source.

T1: EGFP-tagged human orexin receptor 1 (human, UniProt O43613 1-425)
T1 sequence (looked up): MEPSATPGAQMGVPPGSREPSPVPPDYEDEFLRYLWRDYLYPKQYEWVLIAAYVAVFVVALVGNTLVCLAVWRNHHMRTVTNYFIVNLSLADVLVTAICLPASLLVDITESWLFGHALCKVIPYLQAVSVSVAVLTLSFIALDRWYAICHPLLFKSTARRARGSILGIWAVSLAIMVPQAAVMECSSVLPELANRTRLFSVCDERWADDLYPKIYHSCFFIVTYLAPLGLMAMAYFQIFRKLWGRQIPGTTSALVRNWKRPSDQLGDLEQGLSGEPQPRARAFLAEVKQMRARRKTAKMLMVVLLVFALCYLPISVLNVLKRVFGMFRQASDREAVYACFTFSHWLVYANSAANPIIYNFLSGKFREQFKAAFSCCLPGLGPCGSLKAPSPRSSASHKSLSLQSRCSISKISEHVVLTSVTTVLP

T2: EGFP-tagged human orexin receptor 2 (human, UniProt O43614 1-444)
T2 sequence (looked up): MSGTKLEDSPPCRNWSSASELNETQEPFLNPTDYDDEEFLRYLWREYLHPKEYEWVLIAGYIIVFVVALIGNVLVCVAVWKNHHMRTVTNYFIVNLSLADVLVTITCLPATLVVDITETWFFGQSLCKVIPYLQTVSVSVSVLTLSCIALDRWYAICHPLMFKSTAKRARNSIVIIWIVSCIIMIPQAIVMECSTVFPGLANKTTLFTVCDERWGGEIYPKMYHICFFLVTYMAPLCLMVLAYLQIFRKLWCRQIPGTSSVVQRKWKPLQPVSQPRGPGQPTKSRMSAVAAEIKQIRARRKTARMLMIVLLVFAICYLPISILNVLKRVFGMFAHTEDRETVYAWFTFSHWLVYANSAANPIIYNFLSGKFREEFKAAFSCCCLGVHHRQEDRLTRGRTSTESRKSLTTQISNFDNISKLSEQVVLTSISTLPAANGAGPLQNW

B1: Rluc-tagged β-arrestin 2 wild type (natural protein, UniProt P32120 1-420, looked up)
chain: MGEKPGTRVFKKSSPNCKLTVYLGKRDFVDHLDKVDPVDGVVLVDPDYLKDRKVFVTLTCAFRYGREDLDVLGLSFRKDLFIANYQAFPPTPNPPRPPTRLQERLLRKLGQHAHPFFFTIPQNLPCSVTLQPGPEDTGKACGVDFEIRAFCAKSLEEKSHKRNSVRLVIRKVQFAPEKPGPQPSAETTRHFLMSDRSLHLEASLDKELYYHGEPLNVNVHVTNNSTKTVKKIKVSVRQYADICLFSTAQYKCPVAQVEQDDQVSPSSTFCKVYTITPLLSNNREKRGLALDGKLKHEDTNLASSTIVKEGANKEVLGILVSYRVKVKLVVSRGGDVSVELPFVLMHPKPHDHIALPRPQSAATHPPTLLPSAVPETDAPVDTNLIEFETNYATDDDIVFEDFARLRLKGLKDEDYDDQFC
B2: Rluc-tagged phosphorylation-independent β-arrestin 2 mutant R170E (natural protein, UniProt P32120 1-420, looked up)
chain: B1 chain with R170E
B3: Rluc-tagged β-arrestin 1 wild type (natural protein, UniProt P17870 1-418, looked up)
chain: MGDKGTRVFKKASPNGKLTVYLGKRDFVDHIDLVEPVDGVVLVDPEYLKERRVYVTLTCAFRYGREDLDVLGLTFRKDLFVANVQSFPPAPEDKKPLTRLQERLIKKLGEHAYPFTFEIPPNLPCSVTLQPGPEDTGKACGVDYEVKAFCAENLEEKIHKRNSVRLVIRKVQYAPERPGPQPTAETTRQFLMSDKPLHLEASLDKEIYYHGEPISVNVHVTNNTNKTVKKIKISVRQYADICLFNTAQYKCPVAMEEADDTVAPSSTFCKVYTLTPFLANNREKRGLALDGKLKHEDTNLASSTLLREGANREILGIIVSYKVKVKLVVSRGGLLGDLASSDVAVELPFTLMHPKPKEEPPHREVPEHETPVDTNLIELDTNDDDIVFEDFARQRLKGMKDDKEEEEDGTGSPRLNDR
B4: Rluc-tagged phosphorylation-independent β-arrestin 1 mutant R169E (natural protein, UniProt P17870 1-418, looked up)
chain: B3 chain with R169E

molecular target: T1, EGFP-tagged human orexin receptor 1; assay: FRET or BRET

Binder	EC50 of the agonist OxA for receptor-β-arrestin BRET [nM]
B1	719
B2	401
B3	777
B4	412

molecular target: T2, EGFP-tagged human orexin receptor 2; assay: FRET or BRET

Binder	EC50 of the agonist OxA for receptor-β-arrestin BRET [nM]
B1	215
B2	162
B3	376
B4	139

molecular target: T1, EGFP-tagged human orexin receptor 1; assay: FRET or BRET; remark: another data set of the same source

Binder	EC50 of the agonist OxB for receptor-β-arrestin BRET [nM]
B2	3790
B4	3770

molecular target: T2, EGFP-tagged human orexin receptor 2; assay: FRET or BRET; remark: another data set of the same source

Binder	EC50 of the agonist OxB for receptor-β-arrestin BRET [nM]
B1	384
B2	278
B3	334
B4	228
